One block for each molecule: values may come before it.
Key:
[1] = target: T1, DrPPX (Deinococcus radiodurans, UniProt Q9RYW9); assay: X-ray crystal structure of complex; conditions: crystals grown in 1.26 M NaH2PO4 and 0.14 M K2HPO4, pH 5.6; four phosphate ions in the polyP-binding area
T1 construct: gene DR_A0185; full length, N-terminal His6 tag (pET-28a), expressed in E. coli BL21 Rosetta pLysS (DE3); asymmetric homodimer; about 515 residues (C-terminal deletion printed as 320-515)

[2] = target: AbPPX, exopolyphosphatase (PPX) from Acinetobacter baumannii (Acinetobacter baumannii 15827); assay: crystal structure; sitting drop vapor diffusion at 20 °C, protein 1-5 mg/mL; molecular replacement with E. coli PPX (PDB 1U6Z); dimers seen in the crystals
[3] = target: DrPPX, exopolyphosphatase (PPX) from Deinococcus radiodurans, wild type (Deinococcus radiodurans R1); assay: SEC; gel filtration chromatography; elution peak of DrPPX (+7AA) compared with that of wild-type DrPPX
[4] = target: DrPPX, exopolyphosphatase (PPX) from Deinococcus radiodurans, wild type (Deinococcus radiodurans R1); assay: crystal structure; sitting drop vapor diffusion at 20 °C, protein 1-5 mg/mL; molecular replacement with E. coli PPX (PDB 1U6Z); dimers seen in the crystals
[5] = target: KpPPX, exopolyphosphatase (PPX) from Klebsiella pneumoniae (Klebsiella pneumoniae 1158); assay: as above

T1 sequence (Q9RYW9 entry or part of it): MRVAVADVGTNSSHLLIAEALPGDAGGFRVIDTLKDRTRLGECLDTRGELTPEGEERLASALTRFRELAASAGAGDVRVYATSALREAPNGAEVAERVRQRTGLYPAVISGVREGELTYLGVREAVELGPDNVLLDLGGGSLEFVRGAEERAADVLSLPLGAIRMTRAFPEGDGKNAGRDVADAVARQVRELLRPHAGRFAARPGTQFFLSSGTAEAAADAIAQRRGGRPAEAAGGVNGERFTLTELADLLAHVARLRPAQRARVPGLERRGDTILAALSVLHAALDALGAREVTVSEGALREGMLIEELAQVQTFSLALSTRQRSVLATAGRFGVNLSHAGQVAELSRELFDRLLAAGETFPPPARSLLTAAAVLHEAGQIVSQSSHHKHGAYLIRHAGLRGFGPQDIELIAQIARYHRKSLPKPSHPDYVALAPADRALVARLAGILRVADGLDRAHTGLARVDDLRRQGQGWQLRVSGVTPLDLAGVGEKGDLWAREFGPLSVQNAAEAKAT

Molecule: O=P(O)(O)O [Pi, phosphate]
- X-ray crystal structure of complex [1]: four phosphate ions were located in the polyP‐binding area

- stoichiometry N [2]: 2
Molecule: AbPPX, exopolyphosphatase (PPX) from Acinetobacter baumannii (enzyme)

- stoichiometry N [3]: 2
- stoichiometry N [4]: 2
Molecule: DrPPX, exopolyphosphatase (PPX) from Deinococcus radiodurans, wild type (enzyme)

- stoichiometry N [5]: 2
Molecule: KpPPX, exopolyphosphatase (PPX) from Klebsiella pneumoniae (enzyme)

— article PMC11234463, “Structural Evolution of Bacterial Polyphosphate Degradation Enzyme for Phosphorus Cycling” (Advanced Science, 2024)
